Reference: patent US20090166224A1

Legend:
[1] = target: ALPHA-2-HS-GLYCOPROTEIN (human) (UniProt P02765); experiment: untreated sample on M-LAC column, displacer fraction, peak area of peptide …
[2] = target: Alpha-1-acid-glycoprotein in neuraminidase-treated serum (human) (UniProt P02763); experiment: neuraminidized sample on M-LAC column, displacer fraction, peak area of peptide …
[3] = target: Alpha-2HS-glycoprotein in neuraminidase-treated serum (human) (UniProt P02765); experiment: as above
[4] = target: Beta-2-glycoprotein in neuraminidase-treated serum (human) (UniProt P02749); experiment: as above
[5] = target: Haptoglobin in neuraminidase-treated serum (human) (UniProt P00738); experiment: as above
[6] = target: asialotransferrin (human) (UniProt P02787); experiment: as above
[7] = target: ALPHA-2-HS-GLYCOPROTEIN (human) (UniProt P02765); experiment: human serum on M-LAC column, displacer fraction, LC-MS/MS; smaller rank = more abundant
[8] = target: APOLIPOPROTEIN A-I (human) (UniProt P02647); experiment: as above
[9] = target: Alpha-1-acid-glycoprotein (human) (UniProt P02763); experiment: as above
[10] = target: Beta-2-glycoprotein (human) (UniProt P02749); experiment: as above
CERULOPLASMIN (human) [11] = target: CERULOPLASMIN (human) (UniProt P00450); experiment: as above
HAPTOGLOBIN-2 (human) [12] = target: HAPTOGLOBIN-2 (human) (UniProt P00738); experiment: as above
SERO… (human) [13] = target: SERO… (human) (UniProt P02787); experiment: as above
[14] = target: ALPHA-2-HS-GLYCOPROTEIN (human) (UniProt P02765); experiment: human serum on M-LAC column, displacer fraction, extracted ion chromatogram of peptide …
[15] = target: Alpha-1-acid-glycoprotein (human) (UniProt P02763); experiment: as above
[16] = target: Beta-2-glycoprotein (human) (UniProt P02749); experiment: as above
HAPTOGLOBIN-2 (human) [17] = target: HAPTOGLOBIN-2 (human) (UniProt P00738); experiment: as above
SERO… (human) [18] = target: SERO… (human) (UniProt P02787); experiment: as above
[19] = target: APOLIPOPROTEIN A-I (human) (UniProt P02647); experiment: as above
CERULOPLASMIN (human) [20] = target: CERULOPLASMIN (human) (UniProt P00450); experiment: as above
[21] = target: Alpha-1-acid-glycoprotein in fucosidase-treated serum (human) (UniProt P02763); experiment: fucosidase-treated serum on M-LAC column, displacer fraction, LC-MS/MS; smaller rank = more abundant
[22] = target: Apolipoprotein A-I in fucosidase-treated serum (human) (UniProt P02647); experiment: as above
[23] = target: Ceruloplasmin in fucosidase-treated serum (human) (UniProt P00450); experiment: as above
[24] = target: Haptoglobin in fucosidase-treated serum (human) (UniProt P00738); experiment: as above
[25] = target: Alpha-1-acid-glycoprotein in fucosidase-treated serum (human) (UniProt P02763); experiment: fucosidase-treated serum on M-LAC column, displacer fraction, extracted ion chromatogram of peptide …
[26] = target: Apolipoprotein A-I in fucosidase-treated serum (human) (UniProt P02647); experiment: as above
[27] = target: Ceruloplasmin in fucosidase-treated serum (human) (UniProt P00450); experiment: as above
[28] = target: Haptoglobin in fucosidase-treated serum (human) (UniProt P00738); experiment: as above
… ZONE PROTEIN (human) = … ZONE PROTEIN (human) (UniProt P20742); experiment: human serum on M-LAC column, displacer fraction, extracted ion chromatogram of peptide … (so in the source)
[29] = target: Alpha-1-acid-glycoprotein in neuraminidase-treated serum (human) (UniProt P02763); experiment: neuraminidase-treated serum on M-LAC column, displacer fraction, extracted ion chromatogram of peptide …
[30] = target: Alpha-2HS-glycoprotein in neuraminidase-treated serum (human) (UniProt P02765); experiment: as above
[31] = target: Beta-2-glycoprotein in neuraminidase-treated serum (human) (UniProt P02749); experiment: as above
[32] = target: Haptoglobin in neuraminidase-treated serum (human) (UniProt P00738); experiment: as above
HAPTOGLOBIN-2 (human) [33] = target: HAPTOGLOBIN-2 (human) (UniProt P00738); experiment: human serum on Con A/WGA/Jacalin column, lectin-specific displacer fraction, LC-MS/MS; grade = SEQUEST rank group (+ = ranks 1-5, ++++ = 16-20)

Chain of asialotransferrin (human) (P02787 20-698 limits assumed): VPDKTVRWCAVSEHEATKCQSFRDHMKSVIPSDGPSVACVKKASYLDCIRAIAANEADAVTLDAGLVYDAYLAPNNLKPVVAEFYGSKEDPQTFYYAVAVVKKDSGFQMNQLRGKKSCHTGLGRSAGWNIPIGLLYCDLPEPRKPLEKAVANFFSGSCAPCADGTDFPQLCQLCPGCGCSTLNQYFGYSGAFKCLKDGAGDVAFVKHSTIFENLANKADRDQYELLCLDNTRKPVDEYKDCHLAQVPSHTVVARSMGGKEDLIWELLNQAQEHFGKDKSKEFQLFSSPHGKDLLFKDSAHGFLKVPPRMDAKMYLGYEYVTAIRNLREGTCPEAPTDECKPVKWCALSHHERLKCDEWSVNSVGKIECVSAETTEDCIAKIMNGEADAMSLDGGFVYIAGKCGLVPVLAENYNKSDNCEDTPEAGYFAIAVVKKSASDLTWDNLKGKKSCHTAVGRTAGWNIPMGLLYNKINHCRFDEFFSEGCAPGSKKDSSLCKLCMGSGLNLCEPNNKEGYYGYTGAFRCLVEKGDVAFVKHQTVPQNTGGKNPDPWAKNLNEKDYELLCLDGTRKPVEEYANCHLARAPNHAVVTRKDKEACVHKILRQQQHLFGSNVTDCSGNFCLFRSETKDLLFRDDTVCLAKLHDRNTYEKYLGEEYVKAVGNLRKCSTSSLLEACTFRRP
Chain of SERO… (human) (P02787 20-698 limits assumed): as above
Chain of Alpha-2HS-glycoprotein in neuraminidase-treated serum (human) (P02765 19-300 limits assumed, chain 1 of 2): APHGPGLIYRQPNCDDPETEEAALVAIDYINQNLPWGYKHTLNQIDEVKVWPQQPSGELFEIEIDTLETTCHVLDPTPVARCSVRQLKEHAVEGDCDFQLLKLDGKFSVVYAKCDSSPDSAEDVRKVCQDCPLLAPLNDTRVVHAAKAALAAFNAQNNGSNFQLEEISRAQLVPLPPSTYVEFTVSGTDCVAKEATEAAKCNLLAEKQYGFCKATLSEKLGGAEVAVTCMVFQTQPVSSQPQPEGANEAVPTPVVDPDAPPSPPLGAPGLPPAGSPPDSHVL
Chain of Alpha-2HS-glycoprotein in neuraminidase-treated serum (human) (P02765 341-367 limits assumed, chain 2 of 2): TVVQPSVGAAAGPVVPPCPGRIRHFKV
Chain of UniProt P02765 (P02765 19-300 limits assumed, chain 1 of 2): as the sequence (P02765 19-300 limits assumed, chain 1 of 2) above
Chain of Beta-2-glycoprotein (human) (P02749 20-345 limits assumed): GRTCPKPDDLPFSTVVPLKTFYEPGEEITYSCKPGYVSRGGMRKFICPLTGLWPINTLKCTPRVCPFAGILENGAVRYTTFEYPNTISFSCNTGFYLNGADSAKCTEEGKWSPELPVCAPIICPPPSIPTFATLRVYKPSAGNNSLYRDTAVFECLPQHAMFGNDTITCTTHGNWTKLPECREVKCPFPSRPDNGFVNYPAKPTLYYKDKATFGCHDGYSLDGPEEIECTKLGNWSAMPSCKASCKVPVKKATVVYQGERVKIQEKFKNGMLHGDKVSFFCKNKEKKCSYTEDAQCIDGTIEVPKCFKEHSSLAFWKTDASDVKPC
Chain of Beta-2-glycoprotein in neuraminidase-treated serum (human) (P02749 20-345 limits assumed): as above
Chain of Ceruloplasmin in fucosidase-treated serum (human) (P00450 20-1065 limits assumed): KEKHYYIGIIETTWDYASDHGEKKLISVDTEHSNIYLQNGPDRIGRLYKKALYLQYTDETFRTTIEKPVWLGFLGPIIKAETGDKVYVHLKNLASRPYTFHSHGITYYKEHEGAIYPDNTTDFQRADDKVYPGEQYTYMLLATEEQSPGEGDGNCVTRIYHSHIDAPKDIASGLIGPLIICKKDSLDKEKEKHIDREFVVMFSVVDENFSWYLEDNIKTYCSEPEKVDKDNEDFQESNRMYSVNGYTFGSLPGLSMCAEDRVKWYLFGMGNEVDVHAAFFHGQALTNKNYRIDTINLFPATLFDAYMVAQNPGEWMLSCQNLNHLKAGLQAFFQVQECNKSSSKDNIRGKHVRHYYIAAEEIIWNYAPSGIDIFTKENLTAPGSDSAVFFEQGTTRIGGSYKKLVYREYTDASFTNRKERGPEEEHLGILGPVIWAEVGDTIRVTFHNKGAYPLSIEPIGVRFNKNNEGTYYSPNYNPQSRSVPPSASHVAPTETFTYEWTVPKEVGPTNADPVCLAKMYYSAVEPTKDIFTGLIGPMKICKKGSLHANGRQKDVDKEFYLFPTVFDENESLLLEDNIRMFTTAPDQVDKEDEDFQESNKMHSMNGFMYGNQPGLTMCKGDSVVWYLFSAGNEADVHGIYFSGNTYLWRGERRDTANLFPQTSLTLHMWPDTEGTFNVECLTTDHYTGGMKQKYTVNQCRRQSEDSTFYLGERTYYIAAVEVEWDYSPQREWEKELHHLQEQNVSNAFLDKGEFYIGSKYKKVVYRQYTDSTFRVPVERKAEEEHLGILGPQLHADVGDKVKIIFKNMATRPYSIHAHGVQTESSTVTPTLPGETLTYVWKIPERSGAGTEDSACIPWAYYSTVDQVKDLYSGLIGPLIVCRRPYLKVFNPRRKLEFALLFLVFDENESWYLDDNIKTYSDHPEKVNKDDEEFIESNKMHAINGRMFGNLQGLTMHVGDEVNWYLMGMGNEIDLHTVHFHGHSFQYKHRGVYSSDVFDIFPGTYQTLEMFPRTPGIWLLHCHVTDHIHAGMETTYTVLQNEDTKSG
Chain of UniProt P00450 (P00450 20-1065 limits assumed): as above
Chain of UniProt P02647 (P02647 25-267 limits assumed): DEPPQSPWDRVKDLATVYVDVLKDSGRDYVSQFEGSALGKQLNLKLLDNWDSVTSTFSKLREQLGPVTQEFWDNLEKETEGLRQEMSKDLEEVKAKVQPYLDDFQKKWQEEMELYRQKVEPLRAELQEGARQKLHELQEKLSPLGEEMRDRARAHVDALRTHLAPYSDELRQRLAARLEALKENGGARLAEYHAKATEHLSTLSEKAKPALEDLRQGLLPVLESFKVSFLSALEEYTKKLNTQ

Substance	peptide peak area in displacer fraction [1]	peptide peak area in displacer fraction [2]	peptide peak area in displacer fraction [3]	peptide peak area in displacer fraction [4]	peptide peak area in displacer fraction [5]	peptide peak area in displacer fraction [6]	SEQUEST rank in displacer fraction [7]	SEQUEST rank in displacer fraction [8]	SEQUEST rank in displacer fraction [9]	SEQUEST rank in displacer fraction [10]	SEQUEST rank in displacer fraction (CERULOPLASMIN (human) [11])	SEQUEST rank in displacer fraction (HAPTOGLOBIN-2 (human) [12])	SEQUEST rank in displacer fraction (SERO… (human) [13])	peptide peak area in displacer fraction [14]	peptide peak area in displacer fraction [15]	peptide peak area in displacer fraction [16]	peptide peak area in displacer fraction (HAPTOGLOBIN-2 (human) [17])	peptide peak area in displacer fraction (SERO… (human) [18]; peptide at M/Z 530.2)	peptide peak area in displacer fraction (SERO… (human) [18]; peptide at M/Z 790.1)	peptide peak area in displacer fraction [19]	further results
Concanavalin A (Con A), agarose-bound (from UniProt P02866 30-281)	2.6	10.7	2.6	8.4	46.9	36	32	19	33	20	14	7	2	2.6e+06 counts	9.2e+06 counts	3.5e+06 counts	3.9e+07 counts	2e+07 counts	7.8e+06 counts	1.2e+07 counts	peptide peak area in displacer fraction (CERULOPLASMIN (human) [20]): 7.8e+06 counts; SEQUEST rank in displacer fraction [21]: 38; SEQUEST rank in displacer fraction [22]: 12; SEQUEST rank in displacer fraction [23]: 8; SEQUEST rank in displacer fraction [24]: 5; peptide peak area in displacer fraction [25]: 1e+07 counts; peptide peak area in displacer fraction [26]: 1.2e+07 counts; peptide peak area in displacer fraction [27]: 9.8e+06 counts; peptide peak area in displacer fraction [28]: 5.1e+07 counts; peptide peak area in displacer fraction (… ZONE PROTEIN (human)): 6.6e+06 counts; peptide peak area in displacer fraction [29]: 1.1e+07 counts; peptide peak area in displacer fraction [30]: 2.6e+06 counts; peptide peak area in displacer fraction [31]: 8.4e+06 counts; peptide peak area in displacer fraction [32]: 4.7e+07 counts; SEQUEST ranking (relative abundance in the Con A displacement fraction) (HAPTOGLOBIN-2 (human) [33]): 6 to 10 rank
Jacalin lectin, agarose-bound (from UniProt P18670 1-133; P18671 1-20)	4	12.3	7.4	3.8	12.6	28	14	4	21	20	24	9	2	4e+06 counts	9.7e+06 counts	2.6e+06 counts	1e+07 counts	1.9e+07 counts	7e+06 counts	4e+07 counts	peptide peak area in displacer fraction (CERULOPLASMIN (human) [20]): 2e+06 counts; SEQUEST rank in displacer fraction [21]: 19; SEQUEST rank in displacer fraction [22]: 5; SEQUEST rank in displacer fraction [23]: 6; SEQUEST rank in displacer fraction [24]: 7; peptide peak area in displacer fraction [25]: 1.7e+07 counts; peptide peak area in displacer fraction [26]: 4.3e+07 counts; peptide peak area in displacer fraction [27]: 6.2e+06 counts; peptide peak area in displacer fraction [28]: 2.2e+07 counts; peptide peak area in displacer fraction (… ZONE PROTEIN (human)): 0 counts; peptide peak area in displacer fraction [29]: 1.2e+07 counts; peptide peak area in displacer fraction [30]: 7.4e+06 counts; peptide peak area in displacer fraction [31]: 3.8e+06 counts; peptide peak area in displacer fraction [32]: 1.3e+07 counts; SEQUEST ranking (relative abundance in the Jacalin displacement fraction) (HAPTOGLOBIN-2 (human) [33]): 11 to 15 rank
wheat germ agglutinin (WGA), agarose-bound (from UniProt P10968 27-197)	1.7	0	0.9	0	163	1.6	81	10	7	52	8	4	19	1.7e+06 counts	1.29e+08 counts	1.8e+06 counts	2.36e+08 counts	7.7e+06 counts	5e+06 counts	6e+07 counts	peptide peak area in displacer fraction (CERULOPLASMIN (human) [20]): 9.1e+06 counts; SEQUEST rank in displacer fraction [21]: 9; SEQUEST rank in displacer fraction [22]: 24; SEQUEST rank in displacer fraction [23]: 28; SEQUEST rank in displacer fraction [24]: 2; peptide peak area in displacer fraction [25]: 5e+07 counts; peptide peak area in displacer fraction [26]: 1.6e+07 counts; peptide peak area in displacer fraction [27]: 1.1e+07 counts; peptide peak area in displacer fraction [28]: 8.2e+07 counts; peptide peak area in displacer fraction (… ZONE PROTEIN (human)): 1.1e+07 counts; peptide peak area in displacer fraction [29]: 0 counts; peptide peak area in displacer fraction [30]: 900000 counts; peptide peak area in displacer fraction [31]: 0 counts; peptide peak area in displacer fraction [32]: 1.63e+08 counts; SEQUEST ranking (relative abundance in the WGA displacement fraction) (HAPTOGLOBIN-2 (human) [33]): 1 to 5 rank
